# “Also recorded” adds a separate entry of the source.
# B1: E3: humanized, affinity matured anti-NGF antagonist antibody; variable regions SEQ ID NO:1 and 2; human IgG2a (A330P331 to S330S331), kappa (antibody, V domains shown)
# VH: QVQLQESGPGLVKPSETLSLTCTVSGFSLIGYDLNWIRQPPGKGLEWIGIIWGDGTTDYNSAVKSRVTISKDTSKNQFSLKLSSVTAADTAVYYCARGGYWYATSYYFDYWGQGTLVTVS
# VL: DIQMTQSPSSLSASVGDRVTITCRASQSISNNLNWYQQKPGKAPKLLIYYTSRFHSGVPSRFSGSGSGTDFTFTISSLQPEDIATYYCQQEHTLPYTFGQGTKLEIKRT
# modifications: human IgG2a constant (A330S/P331S) and kappa constant missing
# Experiments:
# human NGF [1] = target: T1, human NGF (Homo sapiens, UniProt P01138); assay: BIAcore affinity determination assay (kon, koff, KD of purified Fabs); assay type: binding; conditions: higher affinity than 911
# Description: Affinities of anti-NGF Fabs and monoclonal antibodies were determined using the BIAcore300™ surface plasmon resonance (SPR) system (BIAcore, INC, Piscaway N.J.). CM5 chips were activated with N-ethyl-N′-(3-dimethylaminopropyl)-carbodimide hydrochloride (EDC) and N-hydroxysuccinimide (NHS) according to the supplier's instructions. Human NGF was diluted into 10 mM sodium acetate pH 4.0 and injected over the activated chip at a concentration of 0.005 mg/mL. Using variable flow time across the individual chip channels, two ranges of antigen density were achieved: 100-200 response units (RU) for detailed kinetic studies and 500-600 RU for screening assays. The chip was blocked with ethanolamine. […] HBS-EP buffer (0.01M HEPES, pH 7.4, 0.15 NaCl, 3 mM EDTA, 0.005% Surfactant […]) was used as running buffer for all the BIAcore assays.
# Serial dilutions (0.1-10× estimated KD) of purified Fab samples were injected for 1 min at 100 μL/min and dissociation times of up to 2 h were allowed. The concentrations of the Fab proteins were determined by ELISA and/or SDS-PAGE electrophoresis using as a standard a Fab of known concentration (as determined by amino acid analysis). Kinetic association rates (kon) and dissociation rates (koff) were obtained simultaneously by fitting the data to a 1:1 Langmuir binding model (Karlsson, R. Roos, H. Fagerstam, L. Petersson, B. (1994). Methods Enzymology 6. 99-110) using the BIAevaluation program. Equilibrium dissociation constant (KD) values were calculated as koff/kon.
# The binding affinities to human NGF of Fabs E3 and 3C were measured using BIAcore analysis according to the manufacturer's instructions and as described above, except that 100 RU NGF was used on chip to prevent a rebinding effect. Briefly, several concentrations of antibodies (Fabs) were injected for 2 minutes onto a CM5 chip with 100 RU of immobilized human NGF on it, and permitted to dissociate for 1800 seconds. Mouse antibody 911 (Fab) was analyzed as a control. Data was analyzed using BIAevaluation software following the manufacturer's instructions. E3 bound human NGF with a KD of approximately 0.07 nM (and with a kon of about 6.0e5 M-1s-1, and a koff of about 4.2e-5s-1).
# human NGF [2] = target: T1, human NGF; assay: BIAcore screening assay of Fab library clones (koff); assay type: binding; conditions: Table 8: CDR L3 H3 combination mutations, H19-L129 template (H1H2L1L2 matured)
# Procedure, shortened: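 Fab library clones expressed in E. coli (1 mM IPTG, 5 h, 30° C), lysed by freeze-thaw in HBS-EP; lysates injected at 50 μl/min for 2 min over CM5-immobilised human NGF (500-600 RU). Single-exponential koff fitted from 10-15 min dissociation; Fab presence checked via anti-penta-His channel.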
# human NGF [3] = target: T1, human NGF; assay: Mouse E17/18 trigeminal neuron survival assay, NGF; assay type: cell-based; conditions: saturating NGF (400 pM); 48 hours
# Description: (§1) The ability of antibody E3 to specifically block NGF activity was evaluated by measurement of the capacity of the antibody to inhibit survival of mouse E17/18 trigeminal neurons in vitro in the presence of saturating concentrations of NGF, the NGF-related neurotrophin NT3, or the NGF-unrelated neurotrophic factor, macrophage stimulating protein (MSP). The survival of mouse E17/18 trigeminal neurons is a sensitive assay to evaluate the NGF-blocking activity of anti-NGF antagonist antibodies because NGF is required to support survival of these neurons at higher concentrations than the level of NGF required to support survival of E13.5 TG neurons).
# (§2) The survival assay was conducted as follows: time mated pregnant Swiss Webster female mice were euthanised by CO2 inhalation. The uterine horns were removed and the embryos (at embryonic day 17 or 18) were extracted and decapitated. The trigeminal and nodose ganglia were dissected and cleaned. The ganglia were then trypsinised, mechanically dissociated and plated at a density of 100-300 cells per well in defined, serum-free medium in 4-well plates (Greiner) coated with poly-L-ornithine and laminin.
# (§3) E17/18 trigeminal neurons were grown either without added neurotrophic factors (negative control) or in the presence of saturating concentrations of human NGF (400 pM and 15 pM) (positive control); NT3 (400 pM); or MSP (600 pM). […]
# [4] = target: macrophage stimulating protein (MSP) (Homo sapiens, UniProt P26927); assay: Mouse E17/18 trigeminal neuron survival assay, MSP; assay type: cell-based; conditions: MSP 600 pM; antibody up to 200 nM; 48 hours
# Description: as §1, §2, §3
# T1 sequence (P01138 122-241): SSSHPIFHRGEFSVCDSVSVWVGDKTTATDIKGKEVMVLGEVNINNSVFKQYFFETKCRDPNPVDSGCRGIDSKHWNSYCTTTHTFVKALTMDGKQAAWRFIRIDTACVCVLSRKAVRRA
# Sequence of macrophage stimulating protein (MSP) (P26927 19-711, species assumed): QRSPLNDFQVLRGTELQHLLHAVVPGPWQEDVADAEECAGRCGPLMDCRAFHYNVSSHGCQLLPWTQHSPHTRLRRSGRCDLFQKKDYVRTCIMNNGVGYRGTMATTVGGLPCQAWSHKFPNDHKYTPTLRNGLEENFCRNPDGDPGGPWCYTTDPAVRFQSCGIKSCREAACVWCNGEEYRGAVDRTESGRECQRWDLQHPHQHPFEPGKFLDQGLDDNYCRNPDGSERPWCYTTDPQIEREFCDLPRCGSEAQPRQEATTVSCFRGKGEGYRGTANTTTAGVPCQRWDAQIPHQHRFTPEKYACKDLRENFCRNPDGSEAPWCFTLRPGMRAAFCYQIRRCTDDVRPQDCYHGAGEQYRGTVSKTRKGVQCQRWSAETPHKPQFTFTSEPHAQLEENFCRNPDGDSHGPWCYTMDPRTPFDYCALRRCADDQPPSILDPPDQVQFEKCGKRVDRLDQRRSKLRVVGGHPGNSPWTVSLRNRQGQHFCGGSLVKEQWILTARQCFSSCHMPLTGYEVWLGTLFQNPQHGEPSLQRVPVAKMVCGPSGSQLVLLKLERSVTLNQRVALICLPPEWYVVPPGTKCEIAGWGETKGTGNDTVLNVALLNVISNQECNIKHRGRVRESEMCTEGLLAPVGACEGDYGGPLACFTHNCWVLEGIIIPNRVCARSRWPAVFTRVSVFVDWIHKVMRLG
molecule,measurement,setting,value
B1,binding affinity to human NGF relative to parent mouse antibody 911,human NGF [1],approximately 50 fold
same,koff,human NGF [2],1.2e-05 s⁻¹
same,survival of E17/18 trigeminal neurons promoted by NGF,human NGF [3],completely blocked; also recorded: totally blocked
same,survival of E17/18 trigeminal neurons promoted by MSP,[4],had no effect; also recorded: did not inhibit

# — patent US20080182978A1, “ANTI-NGF ANTIBODIES AND METHODS USING SAME” (RINAT NEUROSCIENCE CORP, priority 2002, published 2008)
